Results published in patent US20150111231A1.

Columns and labels:
[1] = molecular target: human sAPPβ (MESO SCALE DISCOVERY) (human) (UniProt P05067); assay: SPR (ProteOn, GLM chip), 5H10 immobilised, sAPPβ as analyte
[2] = molecular target: human sAPPβ (MESO SCALE DISCOVERY) (human) (UniProt P05067); assay: SPR (ProteOn), 5H10 immobilized on GLM chip, sAPPβ as analyte at 1000, 250, 62.5, 15.6, 3.91 nM

Sequence of human sAPPβ (MESO SCALE DISCOVERY) (human) (P05067 18-671): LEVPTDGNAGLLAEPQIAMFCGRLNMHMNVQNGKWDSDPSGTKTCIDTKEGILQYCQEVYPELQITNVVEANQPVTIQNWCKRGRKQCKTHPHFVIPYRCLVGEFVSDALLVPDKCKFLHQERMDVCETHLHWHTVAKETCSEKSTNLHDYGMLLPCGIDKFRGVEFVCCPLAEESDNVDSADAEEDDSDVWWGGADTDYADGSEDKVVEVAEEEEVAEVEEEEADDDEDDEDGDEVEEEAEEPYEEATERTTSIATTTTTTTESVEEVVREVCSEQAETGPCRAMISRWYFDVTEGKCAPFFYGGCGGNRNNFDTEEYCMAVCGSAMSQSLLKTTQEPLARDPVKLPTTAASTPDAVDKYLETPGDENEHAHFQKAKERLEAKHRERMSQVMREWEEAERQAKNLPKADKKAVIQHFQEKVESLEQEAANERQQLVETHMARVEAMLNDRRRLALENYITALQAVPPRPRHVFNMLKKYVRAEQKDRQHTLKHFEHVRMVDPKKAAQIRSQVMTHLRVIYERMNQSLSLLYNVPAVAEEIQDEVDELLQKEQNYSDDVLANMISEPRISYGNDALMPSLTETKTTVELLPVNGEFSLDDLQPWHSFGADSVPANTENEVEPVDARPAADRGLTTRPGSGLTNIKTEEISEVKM

B1: anti-internal structure antibody 5H10 (antibody, IgG1, V domains shown)
VH: QVQLQQSGTELAKPGASVKMSCKASGYTFIDYWMHWIKQSPGQGLEWIGFINPRSGSTTYNQKFRDKATLTVDTSSSTAYMQLTSLTSEDSAVYYCTRPDFDYFDYWGQGTTLTVSS
VL: DVLMTQTPLSLPVSLGDHASISCRSSQSIVQSNGNTYLEWYLQKPGQSPKLLIYKVSNRFSGVPDRFSGSGSGTDFTLKISSVEAEDLGIYYCFQASHVPLTFGAGTKLELKR
Question: What does the source list for B1?
Answer: koff [1]: 5.62e-05 s⁻¹; kon [1]: 90800 M⁻¹ s⁻¹; Kd [2]: 0.62 nM
